Measurements: US20260001928A1 (CORTERIA PHARMACEUTICALS, priority 2022, published 2026)
Values belong to the binder of their own block, whether it stands above or below them. *1 amine or outer side, *2 acyl side, *3 side chain or, on linkers, in order; H or OH if unused. Where no end group is shown, it is not given here. Side-chain parts run from the residue outwards. [ ]: non-standard residue; d: D form. The star is where a group is joined. C20 diacid = O=C(O)CCCCCCCCCCCCCCCCCCC(=O)*; C16 diacid = O=C(O)CCCCCCCCCCCCCCC(=O)*; γGlu = O=C(O)[C@H](CCC(=O)[*:2])N[*:1]; NMeI = CC[C@H](C)[C@H](NC)C(=O)O; Pentanoyl = CCCCC(=O)*; AEEA = NCCOCCOCC(=O)O; Aib = CC(C)(N)C(=O)O

Target: human corticotropin-releasing factor 2a (CRF2a receptor) (human), Q13324
Sequence (Q13324 20-411): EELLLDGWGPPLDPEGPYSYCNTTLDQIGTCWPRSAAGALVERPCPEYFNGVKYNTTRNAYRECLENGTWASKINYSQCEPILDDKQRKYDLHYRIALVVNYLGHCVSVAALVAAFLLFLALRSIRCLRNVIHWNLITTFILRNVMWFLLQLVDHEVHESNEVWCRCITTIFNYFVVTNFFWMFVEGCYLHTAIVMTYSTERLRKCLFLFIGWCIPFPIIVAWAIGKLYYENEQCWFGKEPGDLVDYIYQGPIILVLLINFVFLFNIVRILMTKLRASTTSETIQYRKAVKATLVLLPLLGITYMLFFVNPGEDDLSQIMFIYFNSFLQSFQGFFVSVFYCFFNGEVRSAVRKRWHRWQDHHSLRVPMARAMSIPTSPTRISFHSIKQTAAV
Assay: cell-based or functional assay

B1: SEQ ID NO 233 (peptide)
peptide: [NMeI]VLSLD[dV]PIKLK([AEEA-γGlu-C20 diacid])KILLEQEKQKEQREQAETN[Aib]QILAQV-NH2
modifications: N-terminus assumed
SMILES: CC[C@H](C)[C@H](NC)C(=O)N[C@H](C(=O)N[C@@H](CC(C)C)C(=O)N[C@@H](CO)C(=O)N[C@@H](CC(C)C)C(=O)N[C@@H](CC(=O)O)C(=O)N[C@@H](C(=O)N1CCC[C@H]1C(=O)N[C@H](C(=O)N[C@@H](CCCCN)C(=O)N[C@@H](CC(C)C)C(=O)N[C@@H](CCCCNC(=O)COCCOCCNC(=O)CC[C@H](NC(=O)CCCCCCCCCCCCCCCCCCC(=O)O)C(=O)O)C(=O)N[C@@H](CCCCN)C(=O)N[C@H](C(=O)N[C@@H](CC(C)C)C(=O)N[C@@H](CC(C)C)C(=O)N[C@@H](CCC(=O)O)C(=O)N[C@@H](CCC(N)=O)C(=O)N[C@@H](CCC(=O)O)C(=O)N[C@@H](CCCCN)C(=O)N[C@@H](CCC(N)=O)C(=O)N[C@@H](CCCCN)C(=O)N[C@@H](CCC(=O)O)C(=O)N[C@@H](CCC(N)=O)C(=O)N[C@@H](CCCNC(=N)N)C(=O)N[C@@H](CCC(=O)O)C(=O)N[C@@H](CCC(N)=O)C(=O)N[C@@H](C)C(=O)N[C@@H](CCC(=O)O)C(=O)N[C@H](C(=O)N[C@@H](CC(N)=O)C(=O)NC(C)(C)C(=O)N[C@@H](CCC(N)=O)C(=O)N[C@H](C(=O)N[C@@H](CC(C)C)C(=O)N[C@@H](C)C(=O)N[C@@H](CCC(N)=O)C(=O)N[C@H](C(N)=O)C(C)C)[C@@H](C)CC)[C@@H](C)O)[C@@H](C)CC)[C@@H](C)CC)C(C)C)C(C)C
EC50 [nM] (cAMP): 0.12 nM

B2: SEQ ID NO 231 (peptide)
peptide: Ac-IVLSLD[dV]PIKLK([AEEA-γGlu-C20 diacid])KILLEQEKQKEQREQAETN[Aib]QILAQV-NH2
SMILES: CC[C@H](C)[C@H](NC(C)=O)C(=O)N[C@H](C(=O)N[C@@H](CC(C)C)C(=O)N[C@@H](CO)C(=O)N[C@@H](CC(C)C)C(=O)N[C@@H](CC(=O)O)C(=O)N[C@@H](C(=O)N1CCC[C@H]1C(=O)N[C@H](C(=O)N[C@@H](CCCCN)C(=O)N[C@@H](CC(C)C)C(=O)N[C@@H](CCCCNC(=O)COCCOCCNC(=O)CC[C@H](NC(=O)CCCCCCCCCCCCCCCCCCC(=O)O)C(=O)O)C(=O)N[C@@H](CCCCN)C(=O)N[C@H](C(=O)N[C@@H](CC(C)C)C(=O)N[C@@H](CC(C)C)C(=O)N[C@@H](CCC(=O)O)C(=O)N[C@@H](CCC(N)=O)C(=O)N[C@@H](CCC(=O)O)C(=O)N[C@@H](CCCCN)C(=O)N[C@@H](CCC(N)=O)C(=O)N[C@@H](CCCCN)C(=O)N[C@@H](CCC(=O)O)C(=O)N[C@@H](CCC(N)=O)C(=O)N[C@@H](CCCNC(=N)N)C(=O)N[C@@H](CCC(=O)O)C(=O)N[C@@H](CCC(N)=O)C(=O)N[C@@H](C)C(=O)N[C@@H](CCC(=O)O)C(=O)N[C@H](C(=O)N[C@@H](CC(N)=O)C(=O)NC(C)(C)C(=O)N[C@@H](CCC(N)=O)C(=O)N[C@H](C(=O)N[C@@H](CC(C)C)C(=O)N[C@@H](C)C(=O)N[C@@H](CCC(N)=O)C(=O)N[C@H](C(N)=O)C(C)C)[C@@H](C)CC)[C@@H](C)O)[C@@H](C)CC)[C@@H](C)CC)C(C)C)C(C)C
EC50 [nM] (cAMP): 0.28 nM

B4: SEQ ID NO 14 (peptide)
peptide: H-IVLSLD[dV]PIKLK([γGlu-C16 diacid])QILLKQERQKKQREQAEKNTQILEQV-NH2
SMILES: CC[C@H](C)[C@H](N)C(=O)N[C@H](C(=O)N[C@@H](CC(C)C)C(=O)N[C@@H](CO)C(=O)N[C@@H](CC(C)C)C(=O)N[C@@H](CC(=O)O)C(=O)N[C@@H](C(=O)N1CCC[C@H]1C(=O)N[C@H](C(=O)N[C@@H](CCCCN)C(=O)N[C@@H](CC(C)C)C(=O)N[C@@H](CCCCNC(=O)CC[C@H](NC(=O)CCCCCCCCCCCCCCC(=O)O)C(=O)O)C(=O)N[C@@H](CCC(N)=O)C(=O)N[C@H](C(=O)N[C@@H](CC(C)C)C(=O)N[C@@H](CC(C)C)C(=O)N[C@@H](CCCCN)C(=O)N[C@@H](CCC(N)=O)C(=O)N[C@@H](CCC(=O)O)C(=O)N[C@@H](CCCNC(=N)N)C(=O)N[C@@H](CCC(N)=O)C(=O)N[C@@H](CCCCN)C(=O)N[C@@H](CCCCN)C(=O)N[C@@H](CCC(N)=O)C(=O)N[C@@H](CCCNC(=N)N)C(=O)N[C@@H](CCC(=O)O)C(=O)N[C@@H](CCC(N)=O)C(=O)N[C@@H](C)C(=O)N[C@@H](CCC(=O)O)C(=O)N[C@@H](CCCCN)C(=O)N[C@@H](CC(N)=O)C(=O)N[C@H](C(=O)N[C@@H](CCC(N)=O)C(=O)N[C@H](C(=O)N[C@@H](CC(C)C)C(=O)N[C@@H](CCC(=O)O)C(=O)N[C@@H](CCC(N)=O)C(=O)N[C@H](C(N)=O)C(C)C)[C@@H](C)CC)[C@@H](C)O)[C@@H](C)CC)[C@@H](C)CC)C(C)C)C(C)C
EC50 [nM] (cAMP): 0.26 nM

B5: SEQ ID NO 232 (peptide)
peptide: Ac-IVLSLD[dV]PIKLK([AEEA-γGlu-C20 diacid])KILLEQEKQKAQREQAETN[Aib]QILAQV-NH2
SMILES: CC[C@H](C)[C@H](NC(C)=O)C(=O)N[C@H](C(=O)N[C@@H](CC(C)C)C(=O)N[C@@H](CO)C(=O)N[C@@H](CC(C)C)C(=O)N[C@@H](CC(=O)O)C(=O)N[C@@H](C(=O)N1CCC[C@H]1C(=O)N[C@H](C(=O)N[C@@H](CCCCN)C(=O)N[C@@H](CC(C)C)C(=O)N[C@@H](CCCCNC(=O)COCCOCCNC(=O)CC[C@H](NC(=O)CCCCCCCCCCCCCCCCCCC(=O)O)C(=O)O)C(=O)N[C@@H](CCCCN)C(=O)N[C@H](C(=O)N[C@@H](CC(C)C)C(=O)N[C@@H](CC(C)C)C(=O)N[C@@H](CCC(=O)O)C(=O)N[C@@H](CCC(N)=O)C(=O)N[C@@H](CCC(=O)O)C(=O)N[C@@H](CCCCN)C(=O)N[C@@H](CCC(N)=O)C(=O)N[C@@H](CCCCN)C(=O)N[C@@H](C)C(=O)N[C@@H](CCC(N)=O)C(=O)N[C@@H](CCCNC(=N)N)C(=O)N[C@@H](CCC(=O)O)C(=O)N[C@@H](CCC(N)=O)C(=O)N[C@@H](C)C(=O)N[C@@H](CCC(=O)O)C(=O)N[C@H](C(=O)N[C@@H](CC(N)=O)C(=O)NC(C)(C)C(=O)N[C@@H](CCC(N)=O)C(=O)N[C@H](C(=O)N[C@@H](CC(C)C)C(=O)N[C@@H](C)C(=O)N[C@@H](CCC(N)=O)C(=O)N[C@H](C(N)=O)C(C)C)[C@@H](C)CC)[C@@H](C)O)[C@@H](C)CC)[C@@H](C)CC)C(C)C)C(C)C
EC50 [nM] (cAMP): 0.12 nM

Second part, the binder after the results:

EC50 [nM] (cAMP): 0.16 nM
B3: SEQ ID NO 235 (peptide)
peptide: Pentanoyl-VLSLD[dV]PIKLK([AEEA-γGlu-C20 diacid])KILLEQEKQKKQREQAETN[Aib]QILAQV-NH2
SMILES: CCCCC(=O)N[C@H](C(=O)N[C@@H](CC(C)C)C(=O)N[C@@H](CO)C(=O)N[C@@H](CC(C)C)C(=O)N[C@@H](CC(=O)O)C(=O)N[C@@H](C(=O)N1CCC[C@H]1C(=O)N[C@H](C(=O)N[C@@H](CCCCN)C(=O)N[C@@H](CC(C)C)C(=O)N[C@@H](CCCCNC(=O)COCCOCCNC(=O)CC[C@H](NC(=O)CCCCCCCCCCCCCCCCCCC(=O)O)C(=O)O)C(=O)N[C@@H](CCCCN)C(=O)N[C@H](C(=O)N[C@@H](CC(C)C)C(=O)N[C@@H](CC(C)C)C(=O)N[C@@H](CCC(=O)O)C(=O)N[C@@H](CCC(N)=O)C(=O)N[C@@H](CCC(=O)O)C(=O)N[C@@H](CCCCN)C(=O)N[C@@H](CCC(N)=O)C(=O)N[C@@H](CCCCN)C(=O)N[C@@H](CCCCN)C(=O)N[C@@H](CCC(N)=O)C(=O)N[C@@H](CCCNC(=N)N)C(=O)N[C@@H](CCC(=O)O)C(=O)N[C@@H](CCC(N)=O)C(=O)N[C@@H](C)C(=O)N[C@@H](CCC(=O)O)C(=O)N[C@H](C(=O)N[C@@H](CC(N)=O)C(=O)NC(C)(C)C(=O)N[C@@H](CCC(N)=O)C(=O)N[C@H](C(=O)N[C@@H](CC(C)C)C(=O)N[C@@H](C)C(=O)N[C@@H](CCC(N)=O)C(=O)N[C@H](C(N)=O)C(C)C)[C@@H](C)CC)[C@@H](C)O)[C@@H](C)CC)[C@@H](C)CC)C(C)C)C(C)C

EC50 [nM] (cAMP): 0.09 nM
B6: SEQ ID NO 234 (peptide)
peptide: [NMeI]VLSLD[dV]PIKLK([AEEA-γGlu-C20 diacid])KILLEQEKQK[Aib]QREQAETN[Aib]QILAQV-NH2
modifications: N-terminus assumed
SMILES: CC[C@H](C)[C@H](NC)C(=O)N[C@H](C(=O)N[C@@H](CC(C)C)C(=O)N[C@@H](CO)C(=O)N[C@@H](CC(C)C)C(=O)N[C@@H](CC(=O)O)C(=O)N[C@@H](C(=O)N1CCC[C@H]1C(=O)N[C@H](C(=O)N[C@@H](CCCCN)C(=O)N[C@@H](CC(C)C)C(=O)N[C@@H](CCCCNC(=O)COCCOCCNC(=O)CC[C@H](NC(=O)CCCCCCCCCCCCCCCCCCC(=O)O)C(=O)O)C(=O)N[C@@H](CCCCN)C(=O)N[C@H](C(=O)N[C@@H](CC(C)C)C(=O)N[C@@H](CC(C)C)C(=O)N[C@@H](CCC(=O)O)C(=O)N[C@@H](CCC(N)=O)C(=O)N[C@@H](CCC(=O)O)C(=O)N[C@@H](CCCCN)C(=O)N[C@@H](CCC(N)=O)C(=O)N[C@@H](CCCCN)C(=O)NC(C)(C)C(=O)N[C@@H](CCC(N)=O)C(=O)N[C@@H](CCCNC(=N)N)C(=O)N[C@@H](CCC(=O)O)C(=O)N[C@@H](CCC(N)=O)C(=O)N[C@@H](C)C(=O)N[C@@H](CCC(=O)O)C(=O)N[C@H](C(=O)N[C@@H](CC(N)=O)C(=O)NC(C)(C)C(=O)N[C@@H](CCC(N)=O)C(=O)N[C@H](C(=O)N[C@@H](CC(C)C)C(=O)N[C@@H](C)C(=O)N[C@@H](CCC(N)=O)C(=O)N[C@H](C(N)=O)C(C)C)[C@@H](C)CC)[C@@H](C)O)[C@@H](C)CC)[C@@H](C)CC)C(C)C)C(C)C
